Here are results for six molecules from patent publication US10005846 (LIFEARC, dated 2018).

Some results are limits rather than exact numbers.

Experiment [1] deals with T1, human transglutaminase type 2 (TG2) (human, UniProt P21980 1-687).
T1 sequence: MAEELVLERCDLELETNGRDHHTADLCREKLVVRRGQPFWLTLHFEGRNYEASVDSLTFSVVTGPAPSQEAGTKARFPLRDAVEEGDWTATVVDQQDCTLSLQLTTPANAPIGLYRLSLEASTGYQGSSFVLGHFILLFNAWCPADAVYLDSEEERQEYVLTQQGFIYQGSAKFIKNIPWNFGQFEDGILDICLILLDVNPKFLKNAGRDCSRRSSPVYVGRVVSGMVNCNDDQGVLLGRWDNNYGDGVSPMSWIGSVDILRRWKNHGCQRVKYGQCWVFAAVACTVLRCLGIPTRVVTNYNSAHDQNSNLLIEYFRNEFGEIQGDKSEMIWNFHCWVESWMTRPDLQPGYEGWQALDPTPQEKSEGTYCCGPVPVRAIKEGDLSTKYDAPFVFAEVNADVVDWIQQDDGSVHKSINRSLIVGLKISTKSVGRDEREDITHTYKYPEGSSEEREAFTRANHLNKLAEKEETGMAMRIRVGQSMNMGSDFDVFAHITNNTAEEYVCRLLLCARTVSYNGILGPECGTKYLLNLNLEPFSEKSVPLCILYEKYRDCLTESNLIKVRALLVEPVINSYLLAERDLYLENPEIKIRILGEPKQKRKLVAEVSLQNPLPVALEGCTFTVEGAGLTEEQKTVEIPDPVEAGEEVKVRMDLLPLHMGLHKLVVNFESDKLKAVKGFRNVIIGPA
Description: cell-based or functional assay.

The target of experiment [2] is T1, human transglutaminase type 2 (TG2). Description: cell-based or functional assay. This is another data set of the same source.
For experiment [3] the target is unchanged. Description: SPR (Biacore T200), antibody captured on anti-human IgG1 Fc chip, TG2 injected; calcium condition not marked in the row. The method, then: (§1) Recombinant cynomolgus monkey TG2 was obtained from Trenzyme. Surface plasmon resonance (SPR) was measured on a Biacore T200 instrument (GE Healthcare). CM5 chips (GE Healthcare cat. no.: BR-1006-68) were coated with monoclonal mouse anti-human IgG1 (Fc) (MAH) antibody (GE Healthcare cat. no.: BR-1008-39) by amine-coupling as described in the manufacturers instructions. HBS-EP+ buffer (0.01 M HEPES, 0.15 M NaCl, 3 mM EDTA, 0.05% v/v Surfactant P20) and HBS-P+ buffer (0.01 M HEPES, 0.15 M NaCl, 0.05% Surfactant P20) were purchased from GE Healthcare as 10× stocks (cat. nos.: BR-1006-69 and BR-1006-71). Calcium Chloride solution was obtained from Sigma Aldrich (cat. no.:21115).
(§2) The method employed to determine the affinity of the anti-TG2 antibodies involved the capture of the chimeric or humanised antibodies on a MAH coated CM5 chip, followed by the injection of a series of TG2 samples in running buffer. The running buffer was 1×HBS-P+ containing 1 mM CaCl_2, or 1×HBS-EP+ for calcium-free experiments. Antibody capture was carried out for a contact time of 120 seconds at a flow rate of 10 μl/min resulting in the capture of approximately 40-80 RU. TG2 was injected over the immobilised antibody at concentrations ranging from 25 nM to 400 nM with a contact time up to 600 seconds at a flow rate of 30 μl/min. Dissociation of TG2 was typically measured for up to 5400 seconds (1.5 hours). Regeneration of the chip was then performed using 3 M MgCl_2, for a contact time of 60 seconds at a flow rate of […], followed by a 300 s stabilisation period before the next sample. For each of human and cynomolgus monkey TG2, at least 5 injections at a variety of concentrations were performed in at least two separate experiments.
(§3) Kinetic data were exported from the Biacore T200 Evaluation Software and analysed using GraphPad Prism, where the association phases and dissociation phases were analysed separately using a one phase association model and one-phase exponential decay model respectively. Association rates ($kon$) were calculated for each curve individually, and dissociation rates ($koff$) values from the long dissociation phase data collected. Where $koff$ values were calculated to be $<1\times10^-5$ s^-1, values were set at 1×10^-5 for analysis, as rates slower than this could not be estimated accurately.
(SPR reads the build-up and loss of mass on a sensor chip optically.)

The target of experiment [4] is T2, cynomolgus monkey TG2 (cynomolgus monkey, UniProt A0A2K5VXI8 1-687).
T2 construct: Bought recombinant protein; also called cynomogulus monkey TG2; cyano TG2
T2 sequence: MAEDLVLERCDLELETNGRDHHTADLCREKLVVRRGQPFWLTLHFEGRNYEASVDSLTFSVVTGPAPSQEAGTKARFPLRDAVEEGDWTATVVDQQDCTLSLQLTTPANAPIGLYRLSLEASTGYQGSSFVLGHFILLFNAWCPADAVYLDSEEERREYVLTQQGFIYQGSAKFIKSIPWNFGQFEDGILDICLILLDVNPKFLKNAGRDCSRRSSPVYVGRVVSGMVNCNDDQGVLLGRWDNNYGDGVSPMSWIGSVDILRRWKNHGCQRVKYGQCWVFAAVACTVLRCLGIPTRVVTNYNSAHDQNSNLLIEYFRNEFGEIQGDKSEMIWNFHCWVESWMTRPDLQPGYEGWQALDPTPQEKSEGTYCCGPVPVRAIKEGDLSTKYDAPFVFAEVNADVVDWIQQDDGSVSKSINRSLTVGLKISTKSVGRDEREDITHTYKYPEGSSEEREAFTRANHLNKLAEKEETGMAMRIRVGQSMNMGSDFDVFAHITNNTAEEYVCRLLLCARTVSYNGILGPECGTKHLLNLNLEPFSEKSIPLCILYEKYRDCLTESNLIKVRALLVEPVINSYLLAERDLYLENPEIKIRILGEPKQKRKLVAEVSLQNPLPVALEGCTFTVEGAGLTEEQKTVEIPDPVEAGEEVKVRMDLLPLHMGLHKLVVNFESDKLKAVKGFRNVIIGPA
Described as above. The method, then: as §1, §2, §3

Experiment [5] addresses T1, human transglutaminase type 2 (TG2). Description: anti-huTG2 ELISA of HEK293F supernatants. The method, then:
Supernatants from HEK293F cells co-transfected with different combinations of humanised AB1 light chains and AB1 heavy chain vectors were assayed in an anti-human IgG ELISA to determine concentration and in an anti huTG2 ELISA. Each supernatant was assayed in triplicate and $IC50$'s determined.
HEK 293F cells were co-transfected with combinations of different humanised light chain vectors in association with different humanised heavy chain vectors. Recombinant human TG2 was used to measure antibody binding by ELISA. […] A similar approach was used to identify optimal pairs of humanized BB7 heavy and light chains, and humanised DC1 heavy and light chains.
On the technique in general: In an ELISA, binding on a coated surface is turned into a signal by an enzyme label.

Experiment [6] has the same target. Description: cell-based or functional assay. This is another data set of the same source.
Experiment [7] deals with T2, cynomolgus monkey TG2. Description: cell-based or functional assay.
For experiment [8], the target named is T1, human transglutaminase type 2 (TG2). Description: ELISA on immobilised human TG2; r2 0.9985; EC50 95% confidence range 0.3927 to 0.4971 [panel A]. How it is done:
(§4) Antibody binding to human and cynomolgus monkey TG2 was determined in an ELISA assay. Clear polystyrene "Maxisorp" 96-well plates (Nunc) were coated with 50 ng purified human or cynomogulus monkey TG2 in 50 µl 0.05 M carbonate-bicarbonate buffer pH 9.6 at 4° C. overnight. Control wells were coated with 50 µl 100 µg/ml bovine serum albumin (BSA). Plates were washed 3× with 300 µl phosphate-buffered saline pH7.4 (PBS) containing 0.1% Tween 20 (PBST) and blocked with 300 µl 3% w/v Marvel skimmed milk in PBS for 1 hour at room temperature. After 3× wash with PBST, 50 µl protein-A purified chimeric or humanised anti-TG2 antibodies or human IgG1 kappa […] control antibody or CUB7402 (Abcam) were serially diluted 4-fold from a top concentration of 50 nM in PBS, and added to the plate in duplicate. […] After 3× washes with PBST, the plates were developed with 50 µl TMB substrate (Sigma) for 5 min at room temperature before stopping the reaction with 25 µl 0.5M H2SO4 and reading absorbance at 450 nm in a microtiter plate reader (BioTek EL808). Dose response curves were analysed and EC50 values and other statistical parameters determined using a 4-parameter logistical fit of the data (GraphPad Prism).

In experiment [9] the target is T2, cynomolgus monkey TG2. Description: ELISA on immobilised cynomolgus monkey TG2; r2 0.9993; EC50 95% confidence range 0.3887 to 0.4489 [panel A]. The method, then:
as §4

B1: hAB005 (hAB001AJ) humanised AB1 antibody (antibody, V domains shown)
VH: EVQLLESGGGLVQPGGSLRLSCAASGFTFSSSAMSWVRQAPGKGLEWVSTISVGGGKTYYPDSVKGRFTISRDNSKNTLYLQMNSLRAEDTAVYYCAKLISLYWGQGTLVTVSS
VL: DIQMTQSPSSLSASVGDRVTITCKASQDINSYLTWFQQKPGKAPKSLIYRTNRLFDGVPSRFSGSGSGTDFFLTISSLQPEDFATYYCLQYDDFPYTFGQGTKVEIK
notes: captured by anti-human IgG1 (Fc); also called Heavy Chain version RHA with Light Chain version RKJ
Take B1: the “IC50, extracellular TG activity of HK-2 cells, biotin cadaverine incorporation into fibronectin” value in experiment [1] came to 71.8 nM. Further, in experiment [2], the “IC50 of enzymatic inhibition, dansylated lysine incorporation into N,N-dimethylated casein; 2 batches shown [continued), panel C]” value worked out at 6.87 nM. In addition, in experiment [3], the equilibrium dissociation constant (Kd) is below 0.05 nM, the koff is below 1e-05 s⁻¹ and the kon stood at 190000 M⁻¹ s⁻¹. Besides, in the experiment with cynomolgus monkey TG2 [4], the dissociation constant Kd worked out at 0.24 nM, the koff amounted to 3.4e-05 s⁻¹ and the kon was determined as 140000 M⁻¹ s⁻¹.

B2: VHc/RKE (antibody, V domains shown)
VH: EVQLVESGGGLVKPGGSLKLSCAASGFTLSSSAMSWVRQTPDRRLEWVATISVGGGKTYYPDSVKGRFTISRDNAKNTLYLQMNSLRSEDTAMYYCAKLISLYWGQGTTLTVSS
VL: EIVLTQSPSSLSASVGDRVTITCKASQDINSYLTWYQQKPGKAPKLLIYRTNRLFDGVPSRFSGSGSGTDFFFTISSLQPEDFGTYYCLQYDDFPYTFGGGTKLEIK
notes: also called hAB001HcE
On to B2, for which, in experiment [5], the binding result is recorded as “binds”.

B3: RHA/VKc (antibody, V domains shown)
VH: EVQLLESGGGLVQPGGSLRLSCAASGFTFSSSAMSWVRQAPGKGLEWVSTISVGGGKTYYPDSVKGRFTISRDNSKNTLYLQMNSLRAEDTAVYYCAKLISLYWGQGTLVTVSS
VL: EIVLTQSPSSMYASLGERVTITCKASQDINSYLTWFQQKPGKSPKTLIYRTNRLFDGVPSRFSGSGSGQDFFLTISSLEYEDMGIYYCLQYDDFPYTFGGGTKLEIK
notes: also called hAB001AKc
For B3, the binding result in experiment [5] is “binds”.

B4: RHA/VKc1 (antibody, V domains shown)
VH: EVQLLESGGGLVQPGGSLRLSCAASGFTFSSSAMSWVRQAPGKGLEWVSTISVGGGKTYYPDSVKGRFTISRDNSKNTLYLQMNSLRAEDTAVYYCAKLISLYWGQGTLVTVSS
VL: DIQMTQSPSSMYASLGERVTITCKASQDINSYLTWFQQKPGKSPKTLIYRTNRLFDGVPSRFSGSGSGQDFFLTISSLEYEDMGIYYCLQYDDFPYTFGGGTKLEIK
notes: also called hAB001AKc1
Take B4: in [5], the binding result is given as “binds”.

B5: VHc/RKJ (antibody, V domains shown)
VH: EVQLVESGGGLVKPGGSLKLSCAASGFTLSSSAMSWVRQTPDRRLEWVATISVGGGKTYYPDSVKGRFTISRDNAKNTLYLQMNSLRSEDTAMYYCAKLISLYWGQGTTLTVSS
VL: DIQMTQSPSSLSASVGDRVTITCKASQDINSYLTWFQQKPGKAPKSLIYRTNRLFDGVPSRFSGSGSGTDFFLTISSLQPEDFATYYCLQYDDFPYTFGQGTKVEIK
notes: also called hAB001HcJ
As for B5, in experiment [5], the binding result is recorded as “binds”.

B6: cDC001 chimeric antibody (murine DC1 variable regions) (antibody, human IgG1, V domains shown)
VH: EVQLVESGGGLVKPGGSLKLSCAASGFTLSTHAMSWVRQTPEKRLEWVATISSGGRSTYYPDSVKGRFTISRDNVKNTLYLQLSSLRSEDTAVYFCARLISTYWGQGTTLTVSS
VL: DITMTQSPSSIYASLGERVTITCKASQDINSYLTWFQQKPGKSPKILIYLVNRLVDGVPSRFSGSGSGQDYALTISSLEYEDMGIYYCLQYDDFPYTFGGGTKLEIK
notes: also called Chimeric DC1
On to B6, for which, in [6], the “IC50 of enzymatic inhibition, dansylated lysine incorporation into N,N-dimethylated casein [continued), panel C]” value amounted to 0.851 nM. For the same molecule, in the experiment with cynomolgus monkey TG2 [7], the “IC50 of enzymatic inhibition, dansylated lysine incorporation into N,N-dimethylated casein [panel A]” value was 5.86 nM. Besides, the EC50 in [8] was 0.442 nM. Besides, the EC50 in the experiment with cynomolgus monkey TG2 [9] is 0.418 nM. In [3], the Kd is below 0.03 nM, the koff is below 1e-05 s⁻¹ and the kon amounted to 320000 M⁻¹ s⁻¹. Moreover, in the experiment with cynomolgus monkey TG2 [4], the dissociation constant (Kd) was below 0.024 nM, the koff was below 1e-05 s⁻¹ and the association rate constant (kon) came to 420000 M⁻¹ s⁻¹.

As a reminder, the Kd is a measure of binding affinity in units of concentration. What is called koff is the rate constant with which the complex falls apart. In general, kon refers to a measure of how fast the partners come together. Broadly, the EC50 is the midpoint of the concentration-response curve.
